The source of these data is paper PMC11079029, “Intramolecular autoinhibition regulates the selectivity of PRPF40A tandem WW domains for proline-rich motifs” (Nature Communications, 2024).

Where a chain is given by its changes, count along the chain named. Values joined by “and” are separate entries in the source; they are usually repeats but may differ in a detail not shown here. Equal entries are not always repeated.

Details in all cases: both partners purified
The target of assay [1] is T1, PRPF40A WW12 (tandem WW domains, residues 141-236) (human, UniProt O75400 141-236).
T1 construct: pETM11 vector, NcoI/KpnI; 15N or 13C,15N labelled for NMR; also called PRPF40A WW tandem; PRPF40A tandem WW domains; source: E. coli BL21(DE3), purified (Ni-NTA, TEV, reverse Ni-NTA, SEC); not shown: His6, N-terminal, cleaved
Nature of the assay: ITC; 16-mer SF1 and polyproline peptides (N-terminal GB1 tagged) in the cell and PRPF40A construct in the syringe (said for Fig. 2; not told for Fig. 5C); 25 °C, 20 mM sodium phosphate pH 6.5, 100 mM NaCl; one-site model; apparent affinities. (In general: ITC needs no label: the signal is the heat of the interaction.)

The target of assay [2] is T2, PRPF40A N-ext-WW12 (residues 56-236) (human, UniProt O75400 56-236).
T2 construct: PRPF40A isoform 1, residues 56-236: N-terminal proline-rich region and the WW tandem; also called N-terminal extended WW12 construct; source: E. coli BL21(DE3), purified (Ni-NTA, TEV, reverse Ni-NTA, SEC); not shown: His6, N-terminal, cleaved
T2 sequence (looked up): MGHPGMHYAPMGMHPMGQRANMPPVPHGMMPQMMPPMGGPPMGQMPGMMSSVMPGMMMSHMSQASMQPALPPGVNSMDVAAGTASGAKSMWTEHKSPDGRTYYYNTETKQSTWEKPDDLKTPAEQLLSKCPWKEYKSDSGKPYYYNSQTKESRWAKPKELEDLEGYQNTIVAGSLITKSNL
The description is as above.

The target in assay [3] is T3, PRPF40A N-ext-WW12 mutant (PPVP/PALPP motifs changed to alanine residues) (human, UniProt O75400 56-236, PPVP, residues 78-81, to alanine residues | PALPP, residues 123-127, to alanine …).
T3 construct: PRPF40A isoform 1, residues 56-236, with the motifs PPVP (78-81) and PALPP (123-127) changed to alanine residues; Made by site-directed mutagenesis; also called mutant version of the N-ext-WW12 construct; mutated version of the N-extWW12; source: E. coli BL21(DE3), purified (Ni-NTA, TEV, reverse Ni-NTA, SEC); not shown: His6, N-terminal, cleaved
T3 sequence (looked up): T2 sequence (looked up) with P23A, P24A, V25A, P26A, P68A, L70A, P71A, P72A
The assay is described as above.

The target of assay [4] is T4, PRPF40A N-ext-WW12 (residues 56-236) (human, UniProt O75400 56-236).
T4 construct: PRPF40A isoform 1, residues 56-236: N-terminal proline-rich region and both WW domains; pETM11 vector; also called Nter Ext WW12; N-terminal extended WW12 construct; source: E. coli BL21(DE3), purified (Ni-NTA, TEV cleavage, reverse Ni-NTA, SEC); not shown: His6, N-terminal, cleaved
T4 sequence (looked up): T2 sequence (looked up)
As to the kind of experiment: ITC; MicroCal PEAQ-ITC, 25 °C, 20 mM sodium phosphate pH 6.5, 100 mM NaCl; PRPF40A constructs and GB1-tagged SF1 16-mer peptides; who was in the syringe is not stated for these panels (Fig. 2B, Fig. 5C); one-site model.

For assay [5], the target named is T5, PRPF40A N-ext-WW12 mutant (PPVP and PALPP motifs changed to alanine residues) (human, UniProt O75400 56-236, 78-81 PPVP to AAAA | 123-127 PALPP to AAAAA).
T5 construct: PRPF40A isoform 1, residues 56-236, with the two motifs PPVP (78-81) and PALPP (123-127) changed to alanine residues; made by site-directed mutagenesis of N-ext-WW12; also called Nter Ext WW12 MUTANT; mutated version of the N-extWW12; source: E. coli BL21(DE3), purified (Ni-NTA, TEV cleavage, reverse Ni-NTA, SEC); not shown: His6, N-terminal, cleaved
T5 sequence (looked up): T2 sequence (looked up) with P23A, P24A, V25A, P26A, P68A, L70A, P71A, P72A
The assay is described as above.

Assay [6] deals with T6, GB1-polyproline peptide P22.
T6 construct: common N-terminal residues after the TEV site (TEVsite-GAMSGS-peptide-SGSN); 22 consecutive prolines; common C-terminal residues; pET24 vector with 6xHis, GB1 and TEV site as N-terminal cassette, not cleaved; also called polyproline length 22; source: E. coli BL21(DE3), purified (Ni-NTA, SEC); not shown: GB1, N-terminal, kept
T6 chain: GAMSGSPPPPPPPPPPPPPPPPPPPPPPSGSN
Nature of the assay: ITC; MicroCal PEAQ-ITC, 25 °C, 20 mM sodium phosphate pH 6.5, 100 mM NaCl; GB1-polyproline peptides in the cell, WW12 in the syringe (N sites >1: more than one WW tandem on one peptide); one-site model; apparent.

The target of assay [7] is T7, GB1-polyproline peptide P25.
T7 construct: common N-terminal residues after the TEV site (TEVsite-GAMSGS-peptide-SGSN); 25 consecutive prolines; common C-terminal residues; pET24 vector with 6xHis, GB1 and TEV site as N-terminal cassette, not cleaved; also called polyproline length 25; source: E. coli BL21(DE3), purified (Ni-NTA, SEC); not shown: GB1, N-terminal, kept
T7 chain: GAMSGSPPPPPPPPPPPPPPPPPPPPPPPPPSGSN
The description is as above.

For assay [8], the target named is T8, GB1-polyproline peptide P29.
T8 construct: common N-terminal residues after the TEV site (TEVsite-GAMSGS-peptide-SGSN); 29 consecutive prolines; common C-terminal residues; pET24 vector with 6xHis, GB1 and TEV site as N-terminal cassette, not cleaved; also called polyproline length 29; source: E. coli BL21(DE3), purified (Ni-NTA, SEC); not shown: GB1, N-terminal, kept
T8 chain: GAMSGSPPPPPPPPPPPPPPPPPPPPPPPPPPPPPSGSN
Described as above.

Assay [9] has as its target T9, GB1-SF1 Pro BC (residues 468-594) (UniProt Q15637 468-594).
T9 construct: SF1 (splicing factor 1) residues 468-594; pET24 vector with 6xHis, GB1 and TEV site as N-terminal cassette, not cleaved; source: E. coli BL21(DE3), purified (Ni-NTA, SEC); not shown: GB1, N-terminal, kept
T9 sequence (looked up): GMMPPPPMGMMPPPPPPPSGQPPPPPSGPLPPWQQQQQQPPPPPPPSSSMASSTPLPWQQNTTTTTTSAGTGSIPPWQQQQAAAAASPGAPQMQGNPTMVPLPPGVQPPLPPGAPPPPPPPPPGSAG
As to the kind of experiment: ITC; MicroCal PEAQ-ITC, 25 °C, 20 mM sodium phosphate pH 6.5, 100 mM NaCl; GB1-tagged SF1/SF3A1 constructs in the syringe, WW12 in the cell (N sites <1: more than one WW tandem on one construct); one-site model; apparent.

The target of assay [10] is T10, GB1-SF1 Pro CD (residues 539-639) (UniProt Q15637 539-639).
T10 construct: SF1 (splicing factor 1) residues 539-639; pET24 vector with 6xHis, GB1 and TEV site as N-terminal cassette, not cleaved; source: E. coli BL21(DE3), purified (Ni-NTA, SEC); not shown: GB1, N-terminal, kept
T10 sequence (looked up): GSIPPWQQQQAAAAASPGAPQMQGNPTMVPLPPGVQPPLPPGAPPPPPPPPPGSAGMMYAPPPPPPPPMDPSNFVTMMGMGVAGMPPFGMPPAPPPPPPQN
The assay is described as above.

Assay [11] deals with T11, GB1-SF1 Pro BCD (residues 468-639) (UniProt Q15637 468-639).
T11 construct: SF1 (splicing factor 1) residues 468-639; pET24 vector with 6xHis, GB1 and TEV site as N-terminal cassette, not cleaved; source: E. coli BL21(DE3), purified (Ni-NTA, SEC); not shown: GB1, N-terminal, kept
T11 sequence (looked up): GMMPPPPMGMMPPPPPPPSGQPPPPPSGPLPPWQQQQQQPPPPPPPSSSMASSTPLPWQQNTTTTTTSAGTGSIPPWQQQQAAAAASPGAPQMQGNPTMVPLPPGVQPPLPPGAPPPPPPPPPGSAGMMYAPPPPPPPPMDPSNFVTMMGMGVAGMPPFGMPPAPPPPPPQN
Described as above.

Assay [12] concerns the target T12, GB1-SF1 Pro ABCD (residues 410-639) (UniProt Q15637 410-639).
T12 construct: SF1 (splicing factor 1) residues 410-639, the complete proline-rich C-terminal region; pET24 vector with 6xHis, GB1 and TEV site as N-terminal cassette, not cleaved; also called complete C-terminal region of SF1; source: E. coli BL21(DE3), purified (Ni-NTA, SEC); not shown: GB1, N-terminal, kept
T12 sequence (looked up): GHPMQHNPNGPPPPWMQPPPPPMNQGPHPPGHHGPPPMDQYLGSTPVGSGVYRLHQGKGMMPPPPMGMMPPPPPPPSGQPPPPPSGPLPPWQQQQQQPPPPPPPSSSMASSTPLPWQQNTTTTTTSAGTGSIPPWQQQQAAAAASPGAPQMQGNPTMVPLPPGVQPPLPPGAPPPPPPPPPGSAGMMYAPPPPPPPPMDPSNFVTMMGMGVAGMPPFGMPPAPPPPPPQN
The description is as above.

Assay [13] has as its target T13, GB1-SF3A1 C-ter Pro (residues 552-683) (UniProt Q15459 552-683).
T13 construct: pET24 vector with 6xHis, GB1 and TEV site as N-terminal cassette, not cleaved; source: E. coli BL21(DE3), purified (Ni-NTA, SEC); not shown: GB1, N-terminal, kept
T13 sequence (looked up): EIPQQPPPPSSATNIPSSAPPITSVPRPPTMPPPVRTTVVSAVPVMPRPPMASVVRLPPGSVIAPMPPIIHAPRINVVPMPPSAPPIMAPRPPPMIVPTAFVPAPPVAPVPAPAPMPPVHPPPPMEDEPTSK
The assay is described as above.

B1: GB1-tagged SF1 575-590 peptide (SF1 PRPF40A WW binding site) (peptide)
chain: GAMSGSPPLPPGAPPPPPPPPPSGSN
notes: common N-terminal residues after the TEV site (TEVsite-GAMSGS-peptide-SGSN); SF1 residues 575-590; common C-terminal residues; pET24 vector with 6xHis, GB1 and TEV site as N-terminal cassette; not cut with TEV for ITC and NMR titrations; also called SF1_(WWbs); source: E. coli BL21(DE3), purified (Ni-NTA, SEC), GB1 tag kept; not shown: GB1, N-terminal, kept
As for B1, the Kd was 1.4 µM in assay [1] and 8.8 µM in assay [2]. Moreover, the binding result in assay [3] was “binds”.

B2: GB1-SF1(575-590) 16-mer peptide, SF1 PRPF40A WW binding site (peptide)
chain: GAMSGSPPLPPGAPPPPPPPPPSGSN
notes: common N-terminal residues after the TEV site (TEVsite-GAMSGS-peptide-SGSN); SF1 (splicing factor 1) residues 575-590; common C-terminal residues; pET24 vector with 6xHis, GB1 and TEV site as N-terminal cassette, not cleaved for ITC; also called SF1_(WWbs); SF1 WWbs; source: E. coli BL21(DE3), purified (Ni-NTA, SEC); not shown: GB1, N-terminal, kept
For B2, the Kd in assay [4] was 9.19 µM and 8.22 µM and 8.71 µM; in assay [5] it was 2.44 µM and 1.98 µM and 2.21 µM.

B3: PRPF40A WW12 (tandem WW domains, residues 141-236) (domain or fragment, human, UniProt O75400 141-236, looked up)
chain: GAKSMWTEHKSPDGRTYYYNTETKQSTWEKPDDLKTPAEQLLSKCPWKEYKSDSGKPYYYNSQTKESRWAKPKELEDLEGYQNTIVAGSLITKSNL
notes: pETM11 vector (NcoI/KpnI); also called PRPF40A WW tandem; isolated WW domains; source: E. coli BL21(DE3), purified (Ni-NTA, TEV cleavage, reverse Ni-NTA, SEC); not shown: His6, N-terminal, cleaved
On to B3, for which the “stoichiometry N” value in assay [6] is 1.41 and 1.37 and 1.39; in assay [7], 2.21 and 2.39 and 2.3; in assay [8], 2.38 and 2.56 and 2.47. Moreover, the Kd is 3.63 µM and 7.76 µM and 9.11 µM and 6.83 µM in assay [9]; 2.83 µM and 4.32 µM and 4.26 µM and 3.8 µM in assay [10]; 2.93 µM and 4.36 µM and 3.65 µM in [11]; 5.41 µM and 4.4 µM and 4.91 µM in [12]; 23.8 µM and 14.8 µM and 19.3 µM in assay [13].

A word on the stoichiometry N: it is a count of units in the complex or per binding partner.
